Legend:
Assay in all cases: fluorescence anisotropy
[1] = molecular target: T1, ScPif1p D677T (Saccharomyces cerevisiae, UniProt P07271 237-780, D677T)
T1 sequence: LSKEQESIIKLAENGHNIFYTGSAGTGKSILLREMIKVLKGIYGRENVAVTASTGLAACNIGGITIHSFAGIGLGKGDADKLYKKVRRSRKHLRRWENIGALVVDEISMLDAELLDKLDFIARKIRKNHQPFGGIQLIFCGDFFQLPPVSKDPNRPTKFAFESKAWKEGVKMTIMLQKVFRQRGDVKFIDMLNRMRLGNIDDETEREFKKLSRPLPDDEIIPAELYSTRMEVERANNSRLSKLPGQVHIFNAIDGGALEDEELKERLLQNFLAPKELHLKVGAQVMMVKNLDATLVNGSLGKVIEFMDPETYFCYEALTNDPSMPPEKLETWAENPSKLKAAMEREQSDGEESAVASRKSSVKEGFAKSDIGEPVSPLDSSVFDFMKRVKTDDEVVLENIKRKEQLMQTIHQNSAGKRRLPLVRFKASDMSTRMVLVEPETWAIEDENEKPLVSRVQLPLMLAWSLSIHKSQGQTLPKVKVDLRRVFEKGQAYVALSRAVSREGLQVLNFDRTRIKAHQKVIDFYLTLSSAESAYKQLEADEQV

[2] = molecular target: T2, ScPif1p K595A (Saccharomyces cerevisiae, UniProt P07271 237-780, K595A)
T2 sequence: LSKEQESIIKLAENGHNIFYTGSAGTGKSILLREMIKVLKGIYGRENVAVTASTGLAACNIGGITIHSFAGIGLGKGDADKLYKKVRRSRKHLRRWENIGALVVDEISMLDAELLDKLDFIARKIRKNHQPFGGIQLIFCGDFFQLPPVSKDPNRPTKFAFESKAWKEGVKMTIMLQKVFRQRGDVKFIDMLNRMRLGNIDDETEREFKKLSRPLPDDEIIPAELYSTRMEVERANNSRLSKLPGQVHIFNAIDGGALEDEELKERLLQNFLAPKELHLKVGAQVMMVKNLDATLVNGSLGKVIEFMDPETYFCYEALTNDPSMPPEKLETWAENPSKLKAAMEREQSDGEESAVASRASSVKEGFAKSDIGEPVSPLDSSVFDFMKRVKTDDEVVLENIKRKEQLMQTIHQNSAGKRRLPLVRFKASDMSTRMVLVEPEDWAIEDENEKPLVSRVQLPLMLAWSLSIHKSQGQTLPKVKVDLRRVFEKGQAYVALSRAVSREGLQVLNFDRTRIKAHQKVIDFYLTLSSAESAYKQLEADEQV

[3] = molecular target: T3, ScPif1p (237-780) (Saccharomyces cerevisiae, UniProt P07271 237-780)
T3 sequence: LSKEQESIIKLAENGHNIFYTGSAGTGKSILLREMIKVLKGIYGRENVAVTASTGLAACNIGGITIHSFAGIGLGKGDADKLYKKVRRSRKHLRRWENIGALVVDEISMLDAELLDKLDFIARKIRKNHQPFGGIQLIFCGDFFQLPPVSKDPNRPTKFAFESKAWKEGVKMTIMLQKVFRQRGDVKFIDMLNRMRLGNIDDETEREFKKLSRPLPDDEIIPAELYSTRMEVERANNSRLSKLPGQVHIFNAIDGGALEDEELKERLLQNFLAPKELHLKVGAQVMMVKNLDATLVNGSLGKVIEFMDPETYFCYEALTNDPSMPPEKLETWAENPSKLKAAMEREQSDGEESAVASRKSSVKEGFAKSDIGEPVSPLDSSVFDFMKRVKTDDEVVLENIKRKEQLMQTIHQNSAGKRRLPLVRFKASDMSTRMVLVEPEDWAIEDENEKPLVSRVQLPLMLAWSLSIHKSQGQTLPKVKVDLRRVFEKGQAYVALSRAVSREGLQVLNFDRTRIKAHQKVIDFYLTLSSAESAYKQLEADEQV

Row | Binder | Kd [1] [nM] | Kd [2] [nM] | Kd [3] [nM]
1 | GTGTGTGTGGTG (ssDNA) [GR12] | 10.5 ± 2.6 | 10.2 ± 1.8 | –
2 | AGGGTGGGTGGGTGGGT (structured_DNA) [F-G417] | – | – | 25 ± 5.1

Reference: article PMC5814829
